Source: patent US10683329B2, “Dual-site BACE1 inhibitors” (priority 2014, dated 2020)
*1 amine or outer side, *2 acyl side, *3 side chain or, on linkers, in order; H or OH if unused. Where a SMILES comes first, the peptide text is derived from it. Where no end group is shown, it is not given here. [ ]: non-standard residue; d: D form. The star is where a group is joined. Succinyl(4-O-cholesteryl) = CC(C)CCC[C@@H](C)[C@H]1CC[C@H]2[C@@H]3CC=C4C[C@@H](OC(=O)CCC(=O)*)CC[C@]4(C)[C@H]3CC[C@]12C; MetSta(3S,4S) = CSCC[C@H](N[*:1])[C@@H](O)CC(=O)[*:2]; Sta = CC(C)C[C@H](N)[C@@H](O)CC(=O)O; PEG4 = NCCOCCOCCOCCOCCC(=O)O; PEG3 = NCCOCCOCCOCCC(=O)O; Ava = NCCCCC(=O)O; βAla = NCCC(=O)O

target: BACE1 enzyme (UniProt P56817 46-501, limits assumed); assay: cell-based or functional assay; details: not given
Sequence (P56817 46-501 limits assumed): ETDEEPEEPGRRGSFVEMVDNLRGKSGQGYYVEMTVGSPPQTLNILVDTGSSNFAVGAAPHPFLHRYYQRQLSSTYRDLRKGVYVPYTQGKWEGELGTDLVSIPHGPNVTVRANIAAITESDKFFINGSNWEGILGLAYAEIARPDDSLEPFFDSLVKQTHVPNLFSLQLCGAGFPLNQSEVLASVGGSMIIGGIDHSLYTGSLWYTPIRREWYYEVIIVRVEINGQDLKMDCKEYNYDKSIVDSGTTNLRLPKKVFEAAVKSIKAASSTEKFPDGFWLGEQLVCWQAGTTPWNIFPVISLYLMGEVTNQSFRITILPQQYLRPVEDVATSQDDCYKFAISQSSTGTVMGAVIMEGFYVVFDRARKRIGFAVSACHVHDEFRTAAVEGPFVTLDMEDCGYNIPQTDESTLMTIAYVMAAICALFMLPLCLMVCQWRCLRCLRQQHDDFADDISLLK

Molecule	IC50, cellular Aβ-lowering assay (Aβ40 in supernatant of HEK293 cells expressing human APP695) [nM]
YPYFIPL[dA]GGEVN[Sta]VAE[dP]K(Chol'ester')-NH2 (also: x TFA salt) [Tyr-Pro-Tyr-Phe-Ile-Pro-Leu-DAla-Gly-Gly-Glu-Val-Asn-Sta-Val-Ala-Glu-DPro-Lys(Chol'ester')-NH2 x TFA]	0.055
YPYFIPLSGGEVN[Sta]VAE[dP]K(Chol'ester')-NH2 (also: TFA salt) [Tyr-Pro-Tyr-Phe-Ile-Pro-Leu-Ser-Gly-Gly-Glu-Val-Asn-Sta-Val-Ala-Glu-DPro-Lys(Chol'ester')-NH2 x TFA]	0.052
YPYFIP[dK]G[dK]GEVN[Sta]VAE[dP]K(Chol'ester')-NH2 (also: x 3TFA salt)	0.0059
YPYFIPLGGGGGEVN[Sta]VAE[dP]K(Chol)-NH2 (also: TFA salt) [Tyr-Pro-Tyr-Phe-Ile-Pro-Leu-Gly-Gly-Gly-Gly-Gly-Glu-Val-Asn-Sta-Val-Ala-Glu-DPro-Lys(Chol)-NH2 x TFA]	0.044
YPYFIPLGGGGEVN[Sta]VAE[dP]K(Chol)-NH2 (also: TFA salt) [Tyr-Pro-Tyr-Phe-Ile-Pro-Leu-Gly-Gly-Gly-Gly-Glu-Val-Asn-Sta-Val-Ala-Glu-DPro-Lys(Chol)-NH2 x TFA]	0.042
YPYFI[dK]LG[dK]GEVN[Sta]VAE[dP]K(Chol'ester')-NH2 (also: x 3TFA salt)	0.45
YPYFIPL[βAla]EVN[Sta]VAE[dP]K(Chol)-NH2 (also: TFA salt) [Tyr-Pro-Tyr-Phe-Ile-Pro-Leu-NH(CH2)2CO-Glu-Val-Asn-Sta-Val-Ala-Glu-DPro-Lys(Chol)-NH2 x TFA]	2.8
[dK]PYFIPLG[dK]GEVN[Sta]VAE[dP]K(Chol'ester')-NH2 (also: x 3TFA salt)	0.013
YPYF[dK]PLG[dK]GEVN[Sta]VAE[dP]K(Chol'ester')-NH2 (also: x 3TFA salt)	7.6
YP[dK]FIPLG[dK]GEVN[Sta]VAE[dP]K(Chol'ester')-NH2 (also: x 3TFA salt)	0.78
YPYFIPL[Ava]EVN[Sta]VAE[dP]K(Chol)-NH2 (also: TFA salt) [Tyr-Pro-Tyr-Phe-Ile-Pro-Leu-NH(CH2)4CO-Glu-Val-Asn-Sta-Val-Ala-Glu-DPro-Lys(Chol)-NH2 x TFA]	0.84
YPKFIPLG[dK]GEVN[MetSta(3S,4S)]VAEPK(Chol'ester')-NH2 (also: x 3TFA salt)	0.061
YPY[dK]IPLG[dK]GEVN[Sta]VAE[dP]K(Chol'ester')-NH2 (also: x 3TFA salt)	6.5
YPYFIPKG[dK]GEVN[Sta]VAE[dP]K(Chol'ester')-NH2 (also: 3TFA salt)	0.012
YPYFIPLGGGGEVN[Sta]DAE[dP]K(Chol)-NH2 (also: x TFA salt) [Tyr-Pro-Tyr-Phe-Ile-Pro-Leu-Gly-Gly-Gly-Gly-Glu-Val-Asn-Sta-Asp-Ala-Glu-DPro-Lys(Chol)-NH2 x TFA]	3.3
YPKFIPLG[dK]GEVNLAAE[dP]K(Chol'ester')-NH2 (also: Leu14*Ala15 Tang hydroxyethylene dipeptide isostere, trifluoroacetate salt (x 3TFA))	0.039
YPYFIPLG[dA]GEVN[Sta]VAE[dP]K(Chol'ester')-NH2 (also: x TFA salt) [Tyr-Pro-Tyr-Phe-Ile-Pro-Leu-Gly-DAla-Gly-Glu-Val-Asn-Sta-Val-Ala-Glu-DPro-Lys(Chol'ester')-NH2 x TFA]	0.02
Y[dK]YFIPLG[dK]GEVN[Sta]VAE[dP]K(Chol'ester')-NH2 (also: x 3TFA salt)	3.4

target: T1, BACE1 (Homo sapiens, UniProt P56817); assay: Cellular Aβ-lowering assay (Aβ40 ELISA of culture supernatant); assay type: cell-based; details: Aβ40 in supernatant of human HEK293 cells stably transfected with human APP wt (APP695); 18-20 hrs incubation; read-out: IC 50
T1 construct: Human HEK293 cells which are stably transfected with a vector expressing a cDNA of the human APP wt gene (APP695); endogenous in cells; host or cells: HEK293 (human), stably transfected with human APP695 wt
Method: The compounds were investigated in accordance with the test given hereinafter.
Cellular Aβ-Lowering Assay:
Human HEK293 cells which are stably transfected with a vector expressing a cDNA of the human APP wt gene (APP695) were used to assess the potency of the compounds in a cellular assay. The cells were seeded in 96-well microtiter plates in cell culture medium (Iscove, plus 10% (v/v) fetal bovine serum, glutamine, penicillin/streptomycin) to about 80% confluence and the compounds were added at a 10× concentration in 1/10 volume of medium without FCS containing 8% DMSO (final concentration of DMSO was kept at 0.8% v/v). After 18-20 hrs incubation at 37° C. and 5% CO2 in a humidified incubator the culture supernatant was harvested for the determination of Aβ40 concentrations. 96 well ELISA plates (e.g., Nunc MaxiSorb) were coated with monoclonal antibody which specifically recognize the C-terminal end of Aβ40 (Brockhaus et al., NeuroReport 9; 1481-1486; 1998). After blocking of non-specific binding sites with e.g. 1% BSA and washing, the culture supernatants were added in suitable dilutions together with a horseradish peroxidase-coupled Aβ detection antibody (e.g., antibody 4G8, Senetek, Maryland Heights, Mo.) and incubated for 5 to 7 hrs. Subsequently the wells of the microtiter plate were washed extensively with Tris-buffered saline containing 0.05% Tween 20 and the assay was developed with tetramethylbenzidine/H2O2 in citric acid buffer. After stopping the reaction with one volume 1 N H2SO4 the reaction was measured in an ELISA reader at 450 nm wavelength. The concentrations of Aβ in the culture supernatants were calculated from a standard curve obtained with known amounts of pure Aβ peptide.

T1 sequence (P56817 46-501): as the sequence (P56817 46-501 limits assumed) above

Molecule	IC50 [nM]
CC[C@H](C)[C@H](NC(=O)[C@H](Cc1ccccc1)NC(=O)[C@H](Cc1ccc(O)cc1)NC(=O)[C@@H]1CCCN1C(=O)[C@@H](N)Cc1ccc(O)cc1)C(=O)N1CCC[C@H]1C(=O)N[C@@H](CC(C)C)C(=O)NCCOCCOCCOCCOCCC(=O)N[C@@H](CCC(=O)O)C(=O)N[C@H](C(=O)N[C@@H](CC(N)=O)C(=O)N[C@@H](CC(C)C)[C@@H](O)CC(=O)N[C@H](C(=O)N[C@@H](C)C(=O)N[C@@H](CCC(=O)O)C(=O)N1CCC[C@@H]1C(=O)N[C@@H](CCCCNC(=O)CCC(=O)O[C@H]1CC[C@@]2(C)C(=CC[C@H]3[C@@H]4CC[C@H]([C@H](C)CCCC(C)C)[C@@]4(C)CC[C@@H]32)C1)C(N)=O)C(C)C)C(C)C [Example 14, Tyr-Pro-Tyr-Phe-Ile-Pro-Leu-PEG(4)-Glu-Val-Asn-Sta-Val-Ala-Glu-DPro-Lys(Chol)-NH2] (H-YPYFIPL[PEG4]EVN[Sta]VAE[dP]K(Succinyl(4-O-cholesteryl))-NH2)	0.027
CC[C@H](C)[C@H](NC(=O)[C@H](Cc1ccccc1)NC(=O)[C@H](Cc1ccc(O)cc1)NC(=O)[C@@H]1CCCN1C(=O)[C@@H](N)CCCCN)C(=O)N1CCC[C@H]1C(=O)N[C@@H](CC(C)C)C(=O)NCC(=O)N[C@H](CCCCN)C(=O)NCC(=O)N[C@@H](CCC(=O)O)C(=O)N[C@H](C(=O)N[C@@H](CC(N)=O)C(=O)N[C@@H](CC(C)C)[C@@H](O)CC(=O)N[C@H](C(=O)N[C@@H](C)C(=O)N[C@@H](CCC(=O)O)C(=O)N1CCC[C@@H]1C(=O)N[C@@H](CCCCNC(=O)CCC(=O)O[C@H]1CC[C@@]2(C)C(=CC[C@H]3[C@@H]4CC[C@H]([C@H](C)CCCC(C)C)[C@@]4(C)CC[C@@H]32)C1)C(N)=O)C(C)C)C(C)C [Example 48, Lys-Pro-Tyr-Phe-Ile-Pro-Leu-Gly-DLys-Gly-Glu-Val-Asn-Sta-Val-Ala-Glu-DPro-Lys(Chol′estert)-NH2] (H-KPYFIPLG[dK]GEVN[Sta]VAE[dP]K(Succinyl(4-O-cholesteryl))-NH2)	0.02
CC[C@H](C)[C@H](NC(=O)[C@H](Cc1ccccc1)NC(=O)[C@H](Cc1ccc(O)cc1)NC(=O)[C@@H]1CCCN1C(=O)[C@@H](N)Cc1ccc(O)cc1)C(=O)N1CCC[C@H]1C(=O)N[C@@H](CC(C)C)C(=O)NCC(=O)N[C@H](C)C(=O)NCC(=O)N[C@@H](CCC(=O)O)C(=O)N[C@H](C(=O)N[C@@H](CC(N)=O)C(=O)N[C@@H](CC(C)C)[C@@H](O)CC(=O)N[C@H](C(=O)N[C@@H](C)C(=O)N[C@@H](CCC(=O)O)C(=O)N1CCC[C@@H]1C(=O)N[C@@H](CCCCNC(=O)CCC(=O)O[C@H]1CC[C@@]2(C)C(=CC[C@H]3[C@@H]4CC[C@H]([C@H](C)CCCC(C)C)[C@@]4(C)CC[C@@H]32)C1)C(N)=O)C(C)C)C(C)C [Example 53, Tyr-Pro-Tyr-Phe-Ile-Pro-Leu-Gly-DAla-Gly-Glu-Val-Asn-Sta-Val-Ala-Glu-DPro-Lys(Chol′ester′)-NH2]	0.02
CC[C@H](C)[C@H](NC(=O)[C@H](Cc1ccccc1)NC(=O)[C@H](Cc1ccc(O)cc1)NC(=O)[C@@H]1CCCN1C(=O)[C@@H](N)Cc1ccc(O)cc1)C(=O)N1CCC[C@H]1C(=O)N[C@@H](CC(C)C)C(=O)NCCOCCOCCOCCC(=O)N[C@@H](CCC(=O)O)C(=O)N[C@H](C(=O)N[C@@H](CC(N)=O)C(=O)N[C@@H](CC(C)C)[C@@H](O)CC(=O)N[C@H](C(=O)N[C@@H](C)C(=O)N[C@@H](CCC(=O)O)C(=O)N1CCC[C@@H]1C(=O)N[C@@H](CCCCNC(=O)CCC(=O)O[C@H]1CC[C@@]2(C)C(=CC[C@H]3[C@@H]4CC[C@H]([C@H](C)CCCC(C)C)[C@@]4(C)CC[C@@H]32)C1)C(N)=O)C(C)C)C(C)C [Example 13, Tyr-Pro-Tyr-Phe-Ile-Pro-Leu-PEG(3)-Glu-Val-Asn-Sta-Val-Ala-Glu-DPro-Lys(Chol)-NH2] (H-YPYFIPL[PEG3]EVN[Sta]VAE[dP]K(Succinyl(4-O-cholesteryl))-NH2)	0.043
